Test [1] has as its target soluble recombinant integrin αIIbβ3, P08514;P05106. The test can be described thus: ELISA-type binding assay (OD450). Conditions: chain shown with the change; CD62P 50 µg/ml; 1 mM Mn2+; parent: est. 0.54; read off a plot.
Test [2] deals with T1, soluble recombinant integrin αvβ3, P06756;P05106.
T1 chain 1: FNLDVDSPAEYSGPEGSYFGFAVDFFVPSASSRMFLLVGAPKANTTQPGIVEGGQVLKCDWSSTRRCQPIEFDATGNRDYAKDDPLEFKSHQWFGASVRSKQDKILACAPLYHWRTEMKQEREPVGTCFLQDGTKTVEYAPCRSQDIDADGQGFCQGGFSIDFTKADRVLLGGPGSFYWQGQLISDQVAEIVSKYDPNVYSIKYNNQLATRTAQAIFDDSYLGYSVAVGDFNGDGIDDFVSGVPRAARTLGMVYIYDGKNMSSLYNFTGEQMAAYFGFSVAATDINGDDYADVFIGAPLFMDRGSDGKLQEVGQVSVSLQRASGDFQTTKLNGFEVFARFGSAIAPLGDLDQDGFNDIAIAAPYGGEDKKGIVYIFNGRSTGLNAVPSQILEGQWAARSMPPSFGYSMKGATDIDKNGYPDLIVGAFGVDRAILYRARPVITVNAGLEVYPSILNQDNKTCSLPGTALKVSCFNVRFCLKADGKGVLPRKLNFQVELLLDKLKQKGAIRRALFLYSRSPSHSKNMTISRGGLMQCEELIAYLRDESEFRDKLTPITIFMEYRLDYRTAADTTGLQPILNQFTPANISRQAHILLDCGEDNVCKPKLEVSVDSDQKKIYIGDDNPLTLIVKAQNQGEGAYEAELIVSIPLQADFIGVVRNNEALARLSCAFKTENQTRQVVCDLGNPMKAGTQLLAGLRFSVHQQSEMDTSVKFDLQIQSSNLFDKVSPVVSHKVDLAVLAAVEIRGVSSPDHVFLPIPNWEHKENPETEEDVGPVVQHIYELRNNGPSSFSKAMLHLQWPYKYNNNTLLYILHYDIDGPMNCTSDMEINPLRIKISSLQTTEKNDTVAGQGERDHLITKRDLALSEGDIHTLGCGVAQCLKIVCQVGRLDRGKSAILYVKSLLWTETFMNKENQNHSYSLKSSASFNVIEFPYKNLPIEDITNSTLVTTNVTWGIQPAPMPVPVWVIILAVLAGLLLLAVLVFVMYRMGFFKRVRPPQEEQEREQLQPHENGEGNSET
T1 chain 2: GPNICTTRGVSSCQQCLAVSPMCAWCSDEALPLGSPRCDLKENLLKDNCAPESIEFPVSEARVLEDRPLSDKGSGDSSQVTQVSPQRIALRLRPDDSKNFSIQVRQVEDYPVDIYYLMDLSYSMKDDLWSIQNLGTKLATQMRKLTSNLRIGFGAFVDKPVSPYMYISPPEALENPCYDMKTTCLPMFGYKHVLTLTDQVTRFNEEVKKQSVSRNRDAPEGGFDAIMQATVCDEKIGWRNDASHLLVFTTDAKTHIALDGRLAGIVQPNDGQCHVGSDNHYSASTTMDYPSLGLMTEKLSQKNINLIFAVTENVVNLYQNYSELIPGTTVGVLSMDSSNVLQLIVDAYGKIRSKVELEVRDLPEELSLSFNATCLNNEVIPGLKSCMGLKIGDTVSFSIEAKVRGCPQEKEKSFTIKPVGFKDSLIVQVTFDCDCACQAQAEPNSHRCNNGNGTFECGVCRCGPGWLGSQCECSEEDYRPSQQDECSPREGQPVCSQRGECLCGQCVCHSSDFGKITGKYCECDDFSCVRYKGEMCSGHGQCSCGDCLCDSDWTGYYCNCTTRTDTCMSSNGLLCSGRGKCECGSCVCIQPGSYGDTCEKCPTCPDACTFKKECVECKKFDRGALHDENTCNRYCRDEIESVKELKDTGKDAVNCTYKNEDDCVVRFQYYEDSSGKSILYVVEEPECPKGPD
Nature of the test: ELISA-type binding assay (OD450). Conditions: chain shown with the change; CD62P 50 µg/ml; 1 mM Mn2+; parent: est. 0.55; read off a plot. Background: In an ELISA, binding on a coated surface is turned into a signal by an enzyme label.

B1: CD62P (P-selectin) lectin domain (residues 1–117), wild type R54E; K55E (protein)
chain: WTYHYSTKAYSWNISRKYCQNRYTDLVAIQNKNEIDYLNKVLPYYSSYYWIGIEENNKTWTWVGTKKALTNEAENWADNEPNNKRNNEDCVEIYIKSPSAPGKWNDEHCLKKKHALC
As for B1, the response in test [1] is 1.3 OD450; in test [2] it was 1.2 OD450.

B2: CD62P (P-selectin) lectin domain (residues 1–117), wild type E88D (protein)
chain: WTYHYSTKAYSWNISRKYCQNRYTDLVAIQNKNEIDYLNKVLPYYSSYYWIGIRKNNKTWTWVGTKKALTNEAENWADNEPNNKRNNDDCVEIYIKSPSAPGKWNDEHCLKKKHALC
Turning to B2, the results for the response in test [1] and in test [2] were 0.76 OD450 and 0.8 OD450, respectively.

B3: CD62P (P-selectin) lectin domain (residues 1–117), wild type K84E; R85E (protein)
chain: WTYHYSTKAYSWNISRKYCQNRYTDLVAIQNKNEIDYLNKVLPYYSSYYWIGIRKNNKTWTWVGTKKALTNEAENWADNEPNNEENNEDCVEIYIKSPSAPGKWNDEHCLKKKHALC
Turning to B3, the response in test [1] was determined as 0.19 OD450; in test [2], 0.24 OD450.

B4: CD62P (P-selectin) lectin domain (residues 1–117), wild type R16E; K17E (protein)
chain: WTYHYSTKAYSWNISEEYCQNRYTDLVAIQNKNEIDYLNKVLPYYSSYYWIGIRKNNKTWTWVGTKKALTNEAENWADNEPNNKRNNEDCVEIYIKSPSAPGKWNDEHCLKKKHALC
Regarding B4, the response in test [1] worked out at 0.12 OD450; in test [2], 0.14 OD450.

B5: CD62P (P-selectin) lectin domain (residues 1–117), wild type K66E; K67E (protein)
chain: WTYHYSTKAYSWNISRKYCQNRYTDLVAIQNKNEIDYLNKVLPYYSSYYWIGIRKNNKTWTWVGTEEALTNEAENWADNEPNNKRNNEDCVEIYIKSPSAPGKWNDEHCLKKKHALC
Take B5: the results for the response in test [1] and in test [2] were 0.3 OD450 and 0.35 OD450, respectively.

B6: CD62P (P-selectin) lectin domain (residues 1–117), wild type K58E (protein)
chain: WTYHYSTKAYSWNISRKYCQNRYTDLVAIQNKNEIDYLNKVLPYYSSYYWIGIRKNNETWTWVGTKKALTNEAENWADNEPNNKRNNEDCVEIYIKSPSAPGKWNDEHCLKKKHALC
With B6, the response in test [1] was 0.27 OD450; in test [2], 0.31 OD450.

The values above are taken from PMC10130748.
